# Measured values published in patent US20200199204A1 (UNITED STATES OF AMERICA AS REPRESENTED BY THE SECRETARY …, published 2020).
# B1: CAP256-VRC26.25 (antibody, V domains shown)
# VH: QVQLVESGGGVVQPGTSLRLSCAASQFRFDGYGMHWVRQAPGKGLEWVASISHDGIKKYHAEKVWGRFTISRDNSKNTLYLQMNSLRPEDTALYYCAKDLREDECEEWWSDYYDFGKQLPCAKSRGGLVGIADNWGQGTMVTVSS
# VL: QSVLTQPPSVSAAPGQKVTISCSGNTSNIGNNFVSWYQQRPGRAPQLLIYETDKRPSGIPDRFSASKSGTSGTLAITGLQTGDEADYYCATWAASLSSARVFGTGTQVIVLG
# What was measured:
# Assay in all cases: cell-based or functional assay
# [1] = target: HIV-1 Env of CAP256.PI (HIV-1)
# [2] = target: HIV-1 Env of CAP256.SU (HIV-1)
# [3] = target: HIV-1 Env of 96ZM651.02 (HIV-1)
# [4] = target: HIV-1 Env of CAP210.E8 (HIV-1)
# [5] = target: HIV-1 Env of CAP244.D3 (HIV-1)
# [6] = target: HIV-1 Env of DU156.12 (HIV-1)
# [7] = target: HIV-1 Env of DU172.17 (HIV-1)
# [8] = target: HIV-1 Env of DU422.01 (HIV-1)
# [9] = target: HIV-1 Env of ZM109.4 (HIV-1)
# [10] = target: HIV-1 Env of ZM135.10a (HIV-1)
# [11] = target: HIV-1 Env of ZM197.7 (HIV-1)
# [12] = target: HIV-1 Env of ZM214.15 (HIV-1)
# [13] = target: HIV-1 Env of ZM249.1 (HIV-1)
# [14] = target: HIV-1 Env of 0260.v5.c36 (HIV-1)
# [15] = target: HIV-1 Env of BG505.w6m (HIV-1)
# [16] = target: HIV-1 Env of KER2008.12 (HIV-1)
# [17] = target: HIV-1 Env of MB201 (HIV-1)
# [18] = target: HIV-1 Env of MB539.2B7 (HIV-1)
# [19] = target: HIV-1 Env of Q168.a2 (HIV-1)
# [20] = target: HIV-1 Env of Q23.17 (HIV-1)
# [21] = target: HIV-1 Env of Q259.d2.17 (HIV-1)
# [22] = target: HIV-1 Env of Q461.e2 (HIV-1)
# [23] = target: HIV-1 Env of Q769.d22 (HIV-1)
# [24] = target: HIV-1 Env of Q842.d12 (HIV-1)
# [25] = target: HIV-1 Env of RW020.2 (HIV-1)
# [26] = target: HIV-1 Env of UG037.8 (HIV-1)
# [27] = target: HIV-1 Env of 6535.3 (HIV-1)
# [28] = target: HIV-1 Env of AC10.29 (HIV-1)
# [29] = target: HIV-1 Env of CAAN.A2 (HIV-1)
# [30] = target: HIV-1 Env of PVO.04 (HIV-1)
# [31] = target: HIV-1 Env of QH0692.42 (HIV-1)
# [32] = target: HIV-1 Env of REJO.67 (HIV-1)
# [33] = target: HIV-1 Env of RHPA.7 (HIV-1)
# [34] = target: HIV-1 Env of SC422.8 (HIV-1)
# [35] = target: HIV-1 Env of THRO.18 (HIV-1)
# [36] = target: HIV-1 Env of TRJO.58 (HIV-1)
# [37] = target: HIV-1 Env of TRO.11 (HIV-1)
# [38] = target: HIV-1 Env of WITO.33 (HIV-1)
# [39] = target: HIV-1 Env of 6405.v4.c34 (HIV-1)
# [40] = target: HIV-1 Env of C1080.c3 (HIV-1)
# [41] = target: HIV-1 Env of CM244.ec1 (HIV-1)
# [42] = target: HIV-1 Env of CNE3 (HIV-1)
# [43] = target: HIV-1 Env of TH976.17 (HIV-1)
# [44] = target: Env of SIVmac251.30 (SIV (SIVmac251))
binder,measurement,setting,value
B1,"IC50 (neutralization, TZM-bl)",[1],1.33 µg/mL
same,"IC50 (neutralization, TZM-bl)",[2],0.001 µg/mL
same,"IC50 (neutralization, TZM-bl)",[3],0.173 µg/mL
same,"IC50 (neutralization, TZM-bl)",[4],0.001 µg/mL
same,"IC50 (neutralization, TZM-bl)",[5],> 50 µg/mL
same,"IC50 (neutralization, TZM-bl)",[6],0.002 µg/mL
same,"IC50 (neutralization, TZM-bl)",[7],> 50 µg/mL
same,"IC50 (neutralization, TZM-bl)",[8],0.003 µg/mL
same,"IC50 (neutralization, TZM-bl)",[9],0.001 µg/mL
same,"IC50 (neutralization, TZM-bl)",[10],> 50 µg/mL
same,"IC50 (neutralization, TZM-bl)",[11],0.002 µg/mL
same,"IC50 (neutralization, TZM-bl)",[12],0.006 µg/mL
same,"IC50 (neutralization, TZM-bl)",[13],0.001 µg/mL
same,"IC50 (neutralization, TZM-bl)",[14],6.54 µg/mL
same,"IC50 (neutralization, TZM-bl)",[15],0.001 µg/mL
same,"IC50 (neutralization, TZM-bl)",[16],0.005 µg/mL
same,"IC50 (neutralization, TZM-bl)",[17],> 50 µg/mL
same,"IC50 (neutralization, TZM-bl)",[18],0.186 µg/mL
same,"IC50 (neutralization, TZM-bl)",[19],0.001 µg/mL
same,"IC50 (neutralization, TZM-bl)",[20],0.001 µg/mL
same,"IC50 (neutralization, TZM-bl)",[21],0.002 µg/mL
same,"IC50 (neutralization, TZM-bl)",[22],0.007 µg/mL
same,"IC50 (neutralization, TZM-bl)",[23],> 50 µg/mL
same,"IC50 (neutralization, TZM-bl)",[24],0.005 µg/mL
same,"IC50 (neutralization, TZM-bl)",[25],> 50 µg/mL
same,"IC50 (neutralization, TZM-bl)",[26],> 50 µg/mL
same,"IC50 (neutralization, TZM-bl)",[27],> 50 µg/mL
same,"IC50 (neutralization, TZM-bl)",[28],0.077 µg/mL
same,"IC50 (neutralization, TZM-bl)",[29],> 50 µg/mL
same,"IC50 (neutralization, TZM-bl)",[30],0.072 µg/mL
same,"IC50 (neutralization, TZM-bl)",[31],> 50 µg/mL
same,"IC50 (neutralization, TZM-bl)",[32],> 50 µg/mL
same,"IC50 (neutralization, TZM-bl)",[33],> 50 µg/mL
same,"IC50 (neutralization, TZM-bl)",[34],47.2 µg/mL
same,"IC50 (neutralization, TZM-bl)",[35],19.8 µg/mL
same,"IC50 (neutralization, TZM-bl)",[36],> 50 µg/mL
same,"IC50 (neutralization, TZM-bl)",[37],> 50 µg/mL
same,"IC50 (neutralization, TZM-bl)",[38],> 50 µg/mL
same,"IC50 (neutralization, TZM-bl)",[39],> 50 µg/mL
same,"IC50 (neutralization, TZM-bl)",[40],0.004 µg/mL
same,"IC50 (neutralization, TZM-bl)",[41],0.092 µg/mL
same,"IC50 (neutralization, TZM-bl)",[42],> 50 µg/mL
same,"IC50 (neutralization, TZM-bl)",[43],0.106 µg/mL
same,"IC50 (neutralization, TZM-bl)",[44],> 50 µg/mL
